Laboratory results from patent US5451522A, “Genes encoding and method of expressing an enzyme: phthalyl amidase” (priority 1994, dated 1995).

What was measured:
phthalyl amidase [1] = biological target: T1, phthalyl amidase (Xanthobacter agilis, UniProt P0C2Y0); assay: Chiral and additional substrate selectivity of phthalyl amidase; format: biochemical; conditions: Table 13; for Relative Activity: III = 100, 0.009 mg (0.6 units) enzyme, 2.5 μmol substrate, buffer A, 30° C.
T1 construct: 42-aa signal peptide removed
Procedure: Several additional substrates were tested in a total volume of 1 ml. […] Reactions were stopped by the addition of methanol, and phthalic acid formation was monitored by HPLC.

Xanthobacter agilis = assay: Induction of phthalyl amidase in Xanthobacter agilis cultures; format: cell-based; conditions: for Total units/mg protein: cell-free lysate, chromogenic substrate II; for Cell weight: 48 hours growth in Bac MI medium
Procedure: Three compounds at different concentrations were added to aerated cultures of the organism growing at 30° C. in Bac MI medium. The compounds tested were phthalate (PAA), phthalyl glycine (PAG), and PMBL. Cells of Xanthobacter agilis were grown with aeration for 24 hours. This vegetative culture was used to inoculate Bac MI medium (50 ml) containing different concentrations of the compounds to be tested. After 48 hours growth under standard conditions, cells were harvested by centrifugation and wet weight of the cells was determined. Crude cell extracts were prepared by lysozyme treatment of the cells as in Example 1. Suspensions were briefly sonicated to break up the viscous suspension. A cell-free supernatant was obtained by centrifugation of the suspension at 14,000 rpm for 15 minutes.
Enzyme activity in cell-free lysates was determined by monitoring conversion of the chromogenic substrate 4-(2'-carboxy-N-benzoyl)amino-2-carboxy-nitrobenzene (II) to 2-nitro-5-amino benzoic acid and phthalic acid, a reaction catalyzed by phthalyl amidase as shown below: [drawing 4]
The assay reaction mixture (1 ml) consisted of 0.3 μmol of the chromogenic substrate (II) and 0.001-0.5 μg of enzyme preparation in 50 mM potassium phosphate buffer, pH 8.0 (buffer A). The enzymatic reaction was conducted at 30° C. for 10 minutes and the appearance of product was monitored at 380 nm (or 430 nm). The amount of substrate hydrolyzed was calculated from a standard curve of the amine product.

phthalyl amidase [2] = biological target: T2, phthalyl amidase (Xanthobacter agilis, UniProt P0C2Y0); assay: Effect of pH on phthalyl amidase activity (substrate III, HPLC); format: biochemical; conditions: 50 mM potassium phosphate, 32° C.
T2 construct: 42-aa signal peptide removed
T2 sequence (P0C2Y0 whole entry, looked up): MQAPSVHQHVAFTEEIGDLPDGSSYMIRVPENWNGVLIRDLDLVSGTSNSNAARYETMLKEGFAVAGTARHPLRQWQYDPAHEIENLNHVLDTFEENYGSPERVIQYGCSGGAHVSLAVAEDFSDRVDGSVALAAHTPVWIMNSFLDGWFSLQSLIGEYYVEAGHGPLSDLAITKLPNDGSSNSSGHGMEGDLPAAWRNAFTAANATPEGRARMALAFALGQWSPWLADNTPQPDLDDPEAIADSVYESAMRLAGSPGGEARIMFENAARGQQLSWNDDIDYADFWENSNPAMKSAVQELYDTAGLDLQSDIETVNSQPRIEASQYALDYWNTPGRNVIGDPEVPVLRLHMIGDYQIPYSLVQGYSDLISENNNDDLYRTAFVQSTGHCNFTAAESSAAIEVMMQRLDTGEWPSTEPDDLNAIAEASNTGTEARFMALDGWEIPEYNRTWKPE
Procedure: The effect of pH on the reaction rate of the analytical scale purified enzyme was determined using phthalamido carbacephem (III) as substrate. [drawing 5]
A typical reaction mixture consisted of 1 ml total volume and contained 0.1 mM III, 0.1 μM phthalyl amidase in 50 mM potassium phosphate buffer (pH 5.5-9.0) at 32° C. for 20 minutes. The reactions were stopped by the addition of 1 ml methanol. After removal of precipitate by centrifugation, an aliquot of the supernatant fraction (typically 30 μ) was monitored for the beta-lactam nucleus and phthalic acid by HPLC using a Zorbax C8 column (0.46×15 cm; MacMod Analytical Inc., Chadds Ford, Pa.). The two reaction products were eluted by a mobile phase constructed as continuous mixed gradients from (a) 1% ACN (acetonitrile)/0.2% TFA (trifluoroacetic acid) and (b) 80% ACN/0.2% TFA as follows: 1) 0% (b), 3 min; 2) 0-50% (b), 0.5 min; 3) 50-100% (b), 3 min; 4) 100% (b), 2.5 min; 5) 100-0% (b), 0.1 min; and 6) 0% (b), 5 min. At a flow rate of 1.5 ml/min, retention times of the beta-lactam nucleus and phthalic acid, as measured at 254 nm, were 2.3 and 7.2 min, respectively.

phthalyl amidase [3] = biological target: T2, phthalyl amidase; assay: Optimum reaction temperature; format: biochemical; conditions: substrate III, 50 mM potassium phosphate, pH 8.2
Procedure: Test reactions were carried out similar to Example 5 except that all incubations were performed in 50 mM potassium phosphate buffer at pH 8.2. Solutions of the substrate were pre-incubated for 5 minutes at temperatures between 2° and 60° C. The enzymatic reaction was initiated by the addition of phthalyl amidase and stopped by the addition of 1 ml methanol. Specific activity of the enzyme was determined by monitoring the hydrolysis of III by HPLC as in Example 5.

phthalyl amidase [4] = biological target: T2, phthalyl amidase; assay: Optimum salt concentration; format: biochemical; conditions: 32° C., substrate III
Procedure: Test reactions were carried out similar to Example 6 except that buffer concentrations ranging from 10 to 200 mM at 32° C. were examined. All other conditions and analyses were the same.

phthalyl amidase [5] = biological target: T2, phthalyl amidase; assay: Stability of phthalyl amidase (ionic strength, pH, temperature); format: physicochemical
Procedure: The stability of phthalyl amidase at pH values ranging from 6-9 was determined as described in Example 5 at 30° C. in both 20 and 200 mM potassium phosphate buffer. […] In 200 mM buffer, the enzyme retained at least 80% of its activity for 100 hours irrespective of the pH of the incubating medium.
The phthalyl amidase enzyme was also tested for stability at varying temperatures. The enzyme was incubated at pH 8.2 in the temperature range of 4°-50° C. for 48 hours in 50 and 200 mM phosphate buffer. […] In 200 mM buffer, 80% of the enzyme activity was retained in temperatures up to 35° C. and 30% of the enzyme activity was retained after 48 hours incubation at 40° C.

## O=C(Nc1ccccc1)c1ccccc1S(=O)(=O)O [XXXII]
Phthalyl amidase [1]
  substrate selectivity (in words): poor substrates
  Relative Activity: 0.0

## O=C(O)c1ccccc1C(=O)N[C@H](C(=O)O)c1ccccc1 [Compound XXX]
Phthalyl amidase [1]
  substrate selectivity (in words): poor substrates
  Relative Activity: 1.3
Phthalyl amidase [1]; listed as L isomer
  substrate selectivity (in words): extremely poor substrate

## O=C(O)c1ccccc1C(=O)O [PAA, phthalate]
Xanthobacter agilis; inducer addition 1 mg/ml
  Units/g cells: 3.9 Units/g cells
  Total units/mg protein: 1.4 µmol/min/mg
Xanthobacter agilis; inducer addition 2 mg/ml
  Units/g cells: 9.3 Units/g cells
  Total units/mg protein: 4.3 µmol/min/mg
Xanthobacter agilis; inducer addition 5 mg/ml
  Units/g cells: 5.5 Units/g cells
  Cell weight: 0.7 g/50 ml
  Total units/mg protein: 3.7 µmol/min/mg
Xanthobacter agilis; inducer addition 10 mg/ml
  Units/g cells: 19.8 Units/g cells
  Cell weight: 0.6 g/50 ml
  Total units/mg protein: 12.0 µmol/min/mg

## O=C(O)c1ccccc1C(=O)Nc1ccccc1 [Compound XXXI]
Phthalyl amidase [1]
  substrate selectivity (in words): twice
  Relative Activity: 200

B1: phthalyl amidase: enzyme from Xanthobacter agilis that removes the phthalyl moiety from phthalyl-containing amides (protein)
chain: QAPSVHQHVAFTEEIGDLPDGSSYMIRVPENWNGVLIRDLDLVSGTSNSNAARYETMLKEGFAVAGTARHPLRQWQYDPAHEIENLNHVLDTFEENYGSPERVIQYGCSGGAHVSLAVAEDFSDRVDGSVALAAHTPVWIMNSFLDGWFSLQSLIGEYYVEAGHGPLSDLAITKLPNDGSSNSSGHGMEGDLPAAWRNAFTAANATPEGRARMALAFALGQWSPWLADNTPQPDLDDPEAIADSVYESAMRLAGSPGGEARIMFENAARGQQLSWNDDIDYADFWENSNPAMKSAVQELYDTAGLDLQSDIETVNSQPRIEASQYALDYWNTPGRNVIGDPEVPVLRLHMIGDYQIPYSLVQGYSDLISENNNDDLYRTAFVQSTGHCNFTAAESSAAIEVMMQRLDTGEWPSTEPDDLNAIAEASNTGTEARFMALDGWEIPEYNRTWKPE
Phthalyl amidase [2]; pH 7.0, substrate III 0.1 mM
  Specific Activity: 125.4 μmol/min/μmol enzyme
Phthalyl amidase [2]; pH 7.2, substrate III 0.1 mM
  Specific Activity: 130.4 μmol/min/μmol enzyme
Phthalyl amidase [2]; pH 7.4, substrate III 0.1 mM
  Specific Activity: 155.2 μmol/min/μmol enzyme
Phthalyl amidase [2]; pH 7.6, substrate III 0.1 mM
  Specific Activity: 172.5 μmol/min/μmol enzyme
Phthalyl amidase [2]; pH 7.8, substrate III 0.1 mM
  Specific Activity: 184.2 μmol/min/μmol enzyme
Phthalyl amidase [2]; pH 8.0, substrate III 0.1 mM
  Specific Activity: 195.3 μmol/min/μmol enzyme
Phthalyl amidase [2]; pH 8.2, substrate III 0.1 mM
  Specific Activity: 201.2 μmol/min/μmol enzyme
Phthalyl amidase [2]; pH 8.4, substrate III 0.1 mM
  Specific Activity: 208.0 μmol/min/μmol enzyme
Phthalyl amidase [2]; pH 8.6, substrate III 0.1 mM
  Specific Activity: 181.7 μmol/min/μmol enzyme
Phthalyl amidase [2]; pH 8.8, substrate III 0.1 mM
  Specific Activity: 185.1 μmol/min/μmol enzyme
Phthalyl amidase [2]; pH 9.0, substrate III 0.1 mM
  Specific Activity: 33.1 μmol/min/μmol enzyme
Phthalyl amidase [3]
  enzyme activity below 10° C. and above 50° C. (in words): Little enzyme activity
  temperature of maximum reaction rate: 34 °C
Phthalyl amidase [4]; K Phosphate buffer 10 mM
  Specific Activity: 148 μmol/min/μmol enzyme
Phthalyl amidase [4]; K Phosphate buffer 50 mM
  Specific Activity: 300 μmol/min/μmol enzyme
Phthalyl amidase [4]; K Phosphate buffer 100 mM
  Specific Activity: 350 μmol/min/μmol enzyme
Phthalyl amidase [4]; K Phosphate buffer 200 mM
  Specific Activity: 360 μmol/min/μmol enzyme
Phthalyl amidase [4]; NH4 Acetate buffer 10 mM
  Specific Activity: 25 μmol/min/μmol enzyme
Phthalyl amidase [4]; NH4 Acetate buffer 50 mM
  Specific Activity: 50 μmol/min/μmol enzyme
Phthalyl amidase [4]; NH4 Acetate buffer 100 mM
  Specific Activity: 75 μmol/min/μmol enzyme
Phthalyl amidase [4]; NH4 Acetate buffer 200 mM
  Specific Activity: 100 μmol/min/μmol enzyme
Phthalyl amidase [4]; Tris-HCl buffer 10 mM
  Specific Activity: 73 μmol/min/μmol enzyme
Phthalyl amidase [4]; Tris-HCl buffer 50 mM
  Specific Activity: 230 μmol/min/μmol enzyme
Phthalyl amidase [4]; Tris-HCl buffer 100 mM
  Specific Activity: 275 μmol/min/μmol enzyme
Phthalyl amidase [4]; Tris-HCl buffer 200 mM
  Specific Activity: 300 μmol/min/μmol enzyme
Phthalyl amidase [5]
  Optimum ionic strength for stability: ≥ 200 mM
  optimum stability pH: 8.0±0.4
  pH range in which the enzyme is stable: 6-9
Phthalyl amidase [5]; 20 mM potassium phosphate buffer, any pH 6-9, 30° C.
  time within which all enzyme activity was lost: ≤ 2 h
Phthalyl amidase [5]; 50 mM phosphate buffer, pH 8.2, incubation temperature above 40° C.
  time within which all enzyme activity was lost: ≤ 48 h
Phthalyl amidase [5]; 50 mM phosphate buffer, pH 8.2, temperatures below 25° C., 48 hours
  enzyme activity retained: 90%
Phthalyl amidase [5]; 200 mM phosphate buffer, pH 8.2, 40° C., 48 hours
  enzyme activity retained: 30%
Phthalyl amidase [5]; 200 mM potassium phosphate buffer, pH 6-9, 30° C., 100 hours
  enzyme activity retained: at least 80%
Phthalyl amidase [5]; high salt (200 mM)
  temperature up to which good activity is retained: up to 40 °C
Phthalyl amidase [5]; low salt (50 mM)
  temperature up to which good activity is retained: up to 30 °C
